The source of these data is patent US20050282743A1, “Molecular interactions in cells” (Arbor Vita Corporation, priority 2001, published 2005).

Test in all cases: G' assay (10 uM PL peptide), results of TABLE 7 and TABLE 12
Holding throughout (assay type): binding

The target in assay [1] is T1, PDZ protein (GST-PDZ fusion) (Homo sapiens, UniProt Q13424).
T1 construct: made in house; host or cells: E. coli (DH5alpha, BL21 or JM109)
T1 sequence (Q13424 1-505): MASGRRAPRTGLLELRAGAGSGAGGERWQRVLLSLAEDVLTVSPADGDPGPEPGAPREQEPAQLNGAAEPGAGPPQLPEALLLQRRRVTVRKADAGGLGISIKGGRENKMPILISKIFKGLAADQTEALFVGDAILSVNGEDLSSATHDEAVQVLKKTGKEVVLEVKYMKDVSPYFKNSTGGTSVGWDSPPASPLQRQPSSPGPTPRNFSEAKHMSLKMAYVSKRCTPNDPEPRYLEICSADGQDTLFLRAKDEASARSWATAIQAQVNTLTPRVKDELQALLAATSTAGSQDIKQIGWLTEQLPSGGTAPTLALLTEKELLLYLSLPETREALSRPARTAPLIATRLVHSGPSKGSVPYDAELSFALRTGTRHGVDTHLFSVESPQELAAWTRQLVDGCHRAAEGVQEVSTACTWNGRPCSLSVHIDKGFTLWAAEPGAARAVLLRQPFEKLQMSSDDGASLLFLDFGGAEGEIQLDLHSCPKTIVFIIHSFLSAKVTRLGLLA
Conditions: PDZ Synt. 1 alpha, PDZ Domain 1. Put shortly: (§1)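 Biotinylated PL peptides at 10 uM (vs 20 uM in G^0 assay) bound to GST-PDZ fusions; PDZ protein at 5 ug/ml unless another concentration listed. Bound peptide read as A450 nm, classified 0–5 (0 = A450 0; 5 = A450 >4 repeated).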

For assay [2], the target named is T2, PDZ protein (GST-PDZ fusion) (Homo sapiens, UniProt Q13796).
T2 construct: made in house; host or cells: E. coli (DH5alpha, BL21 or JM109)
T2 sequence (Q13796 whole entry, the tested form may be a part): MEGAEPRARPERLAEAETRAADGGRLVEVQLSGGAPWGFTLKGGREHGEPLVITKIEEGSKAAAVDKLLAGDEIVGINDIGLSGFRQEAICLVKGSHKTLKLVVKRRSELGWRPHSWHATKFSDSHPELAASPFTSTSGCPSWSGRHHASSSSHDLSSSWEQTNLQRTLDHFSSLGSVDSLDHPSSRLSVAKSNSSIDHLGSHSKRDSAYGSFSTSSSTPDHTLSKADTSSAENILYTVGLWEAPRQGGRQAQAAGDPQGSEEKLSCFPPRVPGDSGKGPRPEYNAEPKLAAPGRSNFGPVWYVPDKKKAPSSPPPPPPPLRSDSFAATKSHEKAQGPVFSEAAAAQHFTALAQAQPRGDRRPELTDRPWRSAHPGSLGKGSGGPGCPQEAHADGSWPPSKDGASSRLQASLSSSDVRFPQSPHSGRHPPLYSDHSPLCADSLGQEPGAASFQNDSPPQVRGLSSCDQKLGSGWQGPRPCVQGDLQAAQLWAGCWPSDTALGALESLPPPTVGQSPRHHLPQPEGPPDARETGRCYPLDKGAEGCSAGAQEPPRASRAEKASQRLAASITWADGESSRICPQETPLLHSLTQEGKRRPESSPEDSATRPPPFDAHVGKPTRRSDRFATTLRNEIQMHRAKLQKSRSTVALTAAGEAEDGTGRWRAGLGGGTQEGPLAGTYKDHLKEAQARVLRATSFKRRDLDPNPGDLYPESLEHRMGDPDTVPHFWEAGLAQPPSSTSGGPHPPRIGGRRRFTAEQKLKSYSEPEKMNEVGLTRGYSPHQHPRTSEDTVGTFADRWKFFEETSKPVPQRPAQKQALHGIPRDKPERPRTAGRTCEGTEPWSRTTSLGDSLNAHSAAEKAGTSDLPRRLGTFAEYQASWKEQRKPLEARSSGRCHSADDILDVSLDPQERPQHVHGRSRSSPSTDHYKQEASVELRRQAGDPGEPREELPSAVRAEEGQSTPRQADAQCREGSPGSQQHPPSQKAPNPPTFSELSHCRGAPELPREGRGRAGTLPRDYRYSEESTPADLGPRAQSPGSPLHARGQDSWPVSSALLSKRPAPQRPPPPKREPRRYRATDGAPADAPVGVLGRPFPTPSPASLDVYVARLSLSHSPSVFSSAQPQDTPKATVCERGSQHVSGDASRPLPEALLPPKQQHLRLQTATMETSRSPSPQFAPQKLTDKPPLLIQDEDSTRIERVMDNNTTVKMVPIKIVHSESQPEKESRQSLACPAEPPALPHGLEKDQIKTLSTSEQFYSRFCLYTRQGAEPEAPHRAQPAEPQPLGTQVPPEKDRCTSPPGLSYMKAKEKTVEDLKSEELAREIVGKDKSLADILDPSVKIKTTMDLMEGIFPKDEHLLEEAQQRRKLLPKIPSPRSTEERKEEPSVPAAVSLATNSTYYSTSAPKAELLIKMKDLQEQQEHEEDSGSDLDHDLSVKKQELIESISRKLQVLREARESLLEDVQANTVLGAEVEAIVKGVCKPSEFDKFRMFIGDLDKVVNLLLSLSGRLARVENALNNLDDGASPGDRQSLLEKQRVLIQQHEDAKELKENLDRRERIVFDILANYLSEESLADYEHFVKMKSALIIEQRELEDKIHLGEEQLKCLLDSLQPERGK
Conditions: PDZ hAPXL, PDZ Domain 1. The essentials: as §1

Assay [3] has as its system PDZ protein (GST-PDZ fusion). Conditions: PDZ SHANK, PDZ Domain 1. Put shortly: as §1
The target of assay [4] is T3, PDZ protein (GST-PDZ fusion) (Homo sapiens, UniProt Q5T2W1).
T3 construct: made in house; host or cells: E. coli (DH5alpha, BL21 or JM109)
T3 sequence (Q5T2W1 1-519): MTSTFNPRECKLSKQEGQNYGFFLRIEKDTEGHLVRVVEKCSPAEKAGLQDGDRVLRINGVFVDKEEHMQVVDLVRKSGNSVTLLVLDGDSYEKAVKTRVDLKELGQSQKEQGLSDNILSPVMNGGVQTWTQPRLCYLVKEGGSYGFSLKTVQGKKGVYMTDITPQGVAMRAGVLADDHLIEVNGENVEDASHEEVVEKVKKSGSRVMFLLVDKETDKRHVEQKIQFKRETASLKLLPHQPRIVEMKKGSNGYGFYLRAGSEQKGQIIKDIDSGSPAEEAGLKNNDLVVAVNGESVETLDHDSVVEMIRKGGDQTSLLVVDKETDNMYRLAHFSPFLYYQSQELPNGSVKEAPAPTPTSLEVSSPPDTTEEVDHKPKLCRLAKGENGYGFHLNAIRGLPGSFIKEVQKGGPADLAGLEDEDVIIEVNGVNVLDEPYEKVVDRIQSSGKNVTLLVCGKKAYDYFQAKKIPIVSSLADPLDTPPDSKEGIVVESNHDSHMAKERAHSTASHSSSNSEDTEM
Conditions: PDZ PDZK1, PDZ Domain 2, 3, 4. Put shortly:
as §1

In assay [5] the target is T4, PDZ protein (GST-PDZ fusion) (Homo sapiens, UniProt Q6P0Q8).
T4 construct: made in house; host or cells: E. coli (DH5alpha, BL21 or JM109)
T4 sequence (Q6P0Q8 whole entry, the tested form may be a part): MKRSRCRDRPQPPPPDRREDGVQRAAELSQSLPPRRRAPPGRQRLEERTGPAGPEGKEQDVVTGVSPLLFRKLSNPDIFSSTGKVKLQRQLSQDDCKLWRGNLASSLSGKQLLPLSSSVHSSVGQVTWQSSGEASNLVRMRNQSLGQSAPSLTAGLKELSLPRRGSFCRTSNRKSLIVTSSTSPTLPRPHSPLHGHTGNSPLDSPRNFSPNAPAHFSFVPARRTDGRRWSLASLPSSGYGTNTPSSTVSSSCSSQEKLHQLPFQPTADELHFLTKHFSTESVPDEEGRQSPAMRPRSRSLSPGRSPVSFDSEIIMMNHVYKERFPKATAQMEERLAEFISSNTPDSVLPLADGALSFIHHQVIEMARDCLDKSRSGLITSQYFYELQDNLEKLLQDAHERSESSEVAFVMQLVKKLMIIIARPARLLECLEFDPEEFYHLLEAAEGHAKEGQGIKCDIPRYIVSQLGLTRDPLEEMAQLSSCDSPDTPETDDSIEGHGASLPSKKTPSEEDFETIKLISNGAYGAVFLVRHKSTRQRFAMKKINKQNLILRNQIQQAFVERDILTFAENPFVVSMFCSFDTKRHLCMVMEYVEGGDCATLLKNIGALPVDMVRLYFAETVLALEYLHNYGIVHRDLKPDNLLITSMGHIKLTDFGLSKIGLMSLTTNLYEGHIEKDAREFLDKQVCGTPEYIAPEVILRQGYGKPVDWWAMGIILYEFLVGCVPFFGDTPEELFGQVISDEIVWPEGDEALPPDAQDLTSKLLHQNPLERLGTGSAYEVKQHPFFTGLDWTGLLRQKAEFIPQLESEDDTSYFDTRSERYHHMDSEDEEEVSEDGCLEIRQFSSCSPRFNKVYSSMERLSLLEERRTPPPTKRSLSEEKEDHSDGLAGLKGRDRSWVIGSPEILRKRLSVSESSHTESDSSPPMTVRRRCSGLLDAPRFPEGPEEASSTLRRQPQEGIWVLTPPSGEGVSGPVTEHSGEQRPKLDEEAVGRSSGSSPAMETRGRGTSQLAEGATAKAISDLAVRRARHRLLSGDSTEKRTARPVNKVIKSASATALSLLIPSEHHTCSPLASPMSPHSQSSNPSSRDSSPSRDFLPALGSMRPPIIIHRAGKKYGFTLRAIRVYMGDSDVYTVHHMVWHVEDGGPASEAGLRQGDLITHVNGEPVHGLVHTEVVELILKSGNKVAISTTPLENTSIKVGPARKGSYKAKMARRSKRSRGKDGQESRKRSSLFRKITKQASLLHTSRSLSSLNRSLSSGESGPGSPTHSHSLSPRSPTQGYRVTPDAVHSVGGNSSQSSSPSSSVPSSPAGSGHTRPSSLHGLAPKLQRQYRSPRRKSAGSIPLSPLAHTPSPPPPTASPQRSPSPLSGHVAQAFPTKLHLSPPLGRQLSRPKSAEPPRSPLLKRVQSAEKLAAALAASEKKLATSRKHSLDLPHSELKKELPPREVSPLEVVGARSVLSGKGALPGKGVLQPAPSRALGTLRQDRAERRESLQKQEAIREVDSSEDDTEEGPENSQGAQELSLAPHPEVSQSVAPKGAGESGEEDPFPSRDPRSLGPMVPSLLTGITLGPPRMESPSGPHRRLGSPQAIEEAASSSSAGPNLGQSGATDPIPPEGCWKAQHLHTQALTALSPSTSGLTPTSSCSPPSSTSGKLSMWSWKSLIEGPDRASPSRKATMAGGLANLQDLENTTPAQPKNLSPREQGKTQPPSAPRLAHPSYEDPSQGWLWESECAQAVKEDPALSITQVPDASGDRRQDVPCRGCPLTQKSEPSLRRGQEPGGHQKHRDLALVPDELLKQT
Put shortly: as §1

Assay [6] concerns the target T5, PDZ protein (GST-PDZ fusion) (Homo sapiens, UniProt Q9Y2H9).
T5 construct: made in house; host or cells: E. coli (DH5alpha, BL21 or JM109)
The settings on record: PDZ KIAA0973, PDZ Domain 1. The essentials:
as §1

Assay [7] deals with T6, PDZ protein (GST-PDZ fusion) (Homo sapiens, UniProt Q02410).
T6 construct: made in house; host or cells: E. coli (DH5alpha, BL21 or JM109)
T6 sequence (Q02410 1-837): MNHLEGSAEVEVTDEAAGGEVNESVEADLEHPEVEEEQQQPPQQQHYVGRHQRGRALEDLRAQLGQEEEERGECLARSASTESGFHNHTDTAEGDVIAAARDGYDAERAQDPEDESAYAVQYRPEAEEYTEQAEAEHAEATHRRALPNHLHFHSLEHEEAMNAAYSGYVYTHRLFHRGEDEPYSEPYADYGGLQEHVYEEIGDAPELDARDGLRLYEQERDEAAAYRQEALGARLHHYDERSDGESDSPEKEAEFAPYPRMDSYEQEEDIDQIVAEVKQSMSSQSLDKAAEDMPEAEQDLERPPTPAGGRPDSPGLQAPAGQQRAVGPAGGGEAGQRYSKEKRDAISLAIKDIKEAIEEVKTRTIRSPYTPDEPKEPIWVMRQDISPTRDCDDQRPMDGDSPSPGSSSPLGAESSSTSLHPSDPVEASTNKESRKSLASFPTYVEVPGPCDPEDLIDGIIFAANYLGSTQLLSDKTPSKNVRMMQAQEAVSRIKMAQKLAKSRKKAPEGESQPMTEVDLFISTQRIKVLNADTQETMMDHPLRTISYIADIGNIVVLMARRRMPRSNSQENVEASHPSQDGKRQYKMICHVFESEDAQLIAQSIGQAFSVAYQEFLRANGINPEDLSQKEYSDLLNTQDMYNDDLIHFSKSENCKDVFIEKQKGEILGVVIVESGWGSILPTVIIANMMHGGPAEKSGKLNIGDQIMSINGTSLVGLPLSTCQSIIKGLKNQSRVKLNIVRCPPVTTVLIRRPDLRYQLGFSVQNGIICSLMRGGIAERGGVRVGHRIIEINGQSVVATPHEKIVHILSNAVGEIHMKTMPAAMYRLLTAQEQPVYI
Put shortly:
as §1

Assay [8] concerns the target T7, PDZ protein (GST-PDZ fusion) (Homo sapiens, UniProt O15018).
T7 construct: made in house; host or cells: E. coli (DH5alpha, BL21 or JM109)
The settings on record: PDZ AIPC, PDZ Domain 1. Put shortly:
as §1

For assay [9], the target named is T8, PDZ protein (GST-PDZ fusion) (Homo sapiens, UniProt O15085).
T8 construct: made in house; host or cells: E. coli (DH5alpha, BL21 or JM109)
T8 sequence (O15085 whole entry, the tested form may be a part): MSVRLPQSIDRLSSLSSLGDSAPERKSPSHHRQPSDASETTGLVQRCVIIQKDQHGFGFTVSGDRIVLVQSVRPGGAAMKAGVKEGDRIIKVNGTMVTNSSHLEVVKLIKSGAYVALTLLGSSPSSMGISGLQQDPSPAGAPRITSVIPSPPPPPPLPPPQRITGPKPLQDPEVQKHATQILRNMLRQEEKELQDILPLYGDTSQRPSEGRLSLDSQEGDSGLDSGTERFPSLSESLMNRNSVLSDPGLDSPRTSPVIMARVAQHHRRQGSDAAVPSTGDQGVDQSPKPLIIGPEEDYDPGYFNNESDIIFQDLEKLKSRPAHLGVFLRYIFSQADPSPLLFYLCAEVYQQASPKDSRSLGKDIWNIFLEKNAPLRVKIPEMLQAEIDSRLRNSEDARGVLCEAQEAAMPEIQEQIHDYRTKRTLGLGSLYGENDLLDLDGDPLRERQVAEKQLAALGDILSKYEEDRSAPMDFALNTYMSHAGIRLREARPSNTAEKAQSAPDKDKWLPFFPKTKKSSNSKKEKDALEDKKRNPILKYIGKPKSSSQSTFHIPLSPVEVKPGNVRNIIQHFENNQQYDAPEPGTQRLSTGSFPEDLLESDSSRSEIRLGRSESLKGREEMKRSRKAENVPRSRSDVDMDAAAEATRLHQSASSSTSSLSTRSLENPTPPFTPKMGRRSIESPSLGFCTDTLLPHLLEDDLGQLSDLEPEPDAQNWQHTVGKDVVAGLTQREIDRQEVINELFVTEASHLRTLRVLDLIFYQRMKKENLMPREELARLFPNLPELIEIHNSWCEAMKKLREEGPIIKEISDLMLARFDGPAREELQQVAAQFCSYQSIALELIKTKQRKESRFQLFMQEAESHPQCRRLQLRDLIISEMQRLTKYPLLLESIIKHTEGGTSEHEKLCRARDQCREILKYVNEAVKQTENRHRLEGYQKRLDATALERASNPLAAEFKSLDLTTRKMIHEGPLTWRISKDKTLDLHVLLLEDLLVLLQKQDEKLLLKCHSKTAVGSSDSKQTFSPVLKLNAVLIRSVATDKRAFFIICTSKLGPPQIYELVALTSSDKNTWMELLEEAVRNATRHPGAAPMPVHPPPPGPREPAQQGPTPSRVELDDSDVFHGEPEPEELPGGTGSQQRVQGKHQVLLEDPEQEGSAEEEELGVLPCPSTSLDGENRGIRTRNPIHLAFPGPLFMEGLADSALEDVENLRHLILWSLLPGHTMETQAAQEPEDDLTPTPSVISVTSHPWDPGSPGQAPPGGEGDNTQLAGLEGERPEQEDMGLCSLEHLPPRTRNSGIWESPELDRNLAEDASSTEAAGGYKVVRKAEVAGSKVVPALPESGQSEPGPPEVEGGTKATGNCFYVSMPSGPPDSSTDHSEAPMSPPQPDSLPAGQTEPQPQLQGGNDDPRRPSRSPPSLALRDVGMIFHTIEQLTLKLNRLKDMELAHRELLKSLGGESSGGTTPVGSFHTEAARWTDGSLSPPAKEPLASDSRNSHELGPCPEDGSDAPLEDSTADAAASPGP
Conditions: PDZ KIAA0380, PDZ Domain 1. Put shortly: as §1

Assay [10] has as its target T9, PDZ protein (GST-PDZ fusion) (Homo sapiens, UniProt P50479).
T9 construct: made in house; host or cells: E. coli (DH5alpha, BL21 or JM109)
T9 sequence (P50479 1-330): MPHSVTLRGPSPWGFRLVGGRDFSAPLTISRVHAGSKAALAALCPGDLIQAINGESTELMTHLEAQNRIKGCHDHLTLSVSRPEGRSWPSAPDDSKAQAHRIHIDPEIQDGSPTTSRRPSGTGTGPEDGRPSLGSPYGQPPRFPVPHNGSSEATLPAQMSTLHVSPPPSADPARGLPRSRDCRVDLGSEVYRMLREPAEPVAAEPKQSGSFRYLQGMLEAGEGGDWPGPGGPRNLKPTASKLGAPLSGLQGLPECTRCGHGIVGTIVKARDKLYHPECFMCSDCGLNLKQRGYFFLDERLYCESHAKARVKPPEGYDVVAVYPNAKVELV
Conditions: PDZ LIM RIL, PDZ Domain 1. The essentials: as §1

For assay [11], the target named is T10, PDZ protein (GST-PDZ fusion) (Homo sapiens, UniProt Q8NI35).
T10 construct: made in house; host or cells: E. coli (DH5alpha, BL21 or JM109)
The settings on record: PDZ INADL, PDZ Domain 8. Put shortly: as §1

The target of assay [12] is T11, PDZ protein (GST-PDZ fusion) (Homo sapiens, UniProt O75970).
T11 construct: made in house; host or cells: E. coli (DH5alpha, BL21 or JM109)
The settings on record: PDZ MUPP-1, PDZ Domain 10. Put shortly: as §1

Ends that are not written are not given here. * marks the point of attachment. Biotin = O=C1N[C@H]2[C@H](CS[C@H]2CCCCC(=O)*)N1

As for “DAKLKSDGTIAAITEKETHF (Biotin-DAKLKSDGTIAAITEKETHF) [GABA transporter 3]”, the Classification in assay [1] is recorded as 1 (A450 nm 0-1); in [2], 1 (A450 nm 0-1); in assay [3], 1 (A450 nm 0-1); in [4] it was 1 (A450 nm 0-1); in assay [5] (PDZ KIAA807), 1 (A450 nm 0-1); in assay [5] (PDZ KIAA0807(S), PDZ Domain 1), 1 (A450 nm 0-1).
Take “SSKSKSSEESQTFFGLYKL (Biotin-SSKSKSSEESQTFFGLYKL) [Fas Ligand]”: the Classification is on record as 2 (A450 nm 1-2) in [2]; 2 (A450 nm 1-2) in assay [6]; 4 (A450 nm 3-4) in assay [7] (PDZ Mint 1, PDZ Domain 1, 2); 2 (A450 nm 1-2) in assay [8]; 5 (A450 nm of 4 more than 2× repeated) in [5] (PDZ KIAA807); 5 (A450 nm of 4 more than 2× repeated) in [5] (PDZ KIAA0807(S), PDZ Domain 1). In addition, the Classification in [9] is recorded as 3 (A450 nm 2-3).
Turning to “INSVGSTASSSQPLLVHDDV (Biotin-INSVGSTASSSQPLLVHDDV) [c-kit receptor]”, the Classification in [10] is given as 1 (A450 nm 0-1); in [11], 1 (A450 nm 0-1); in assay [12], 1 (A450 nm 0-1); in assay [7] (PDZ Mint 1, PDZ Domain 2), 1 (A450 nm 0-1).
